One block for each binder: values may come before it. No end group written: not given here. Me3 = trimethyl-lysine
What was measured:
Details in all cases: both partners purified
[1] = biological target: T1, KDM4A double tudor domain (KDM4A-DTD), His6 tag cleaved, for crystallization (human, UniProt O75164 895-1011); test: crystal structure; KDM4A-DTD mixed with H3K23me3 peptide at about 1:1.5, crystallized at 20 °C in 100 mM CAPS pH 10.5, 200 mM lithium sulfate, 1.2 M NaH2PO4, 0.8 M K2HPO4
T1 construct: Human KDM4A double tudor domain, residues 895-1011 of UniProt O75164 (isoform 1); pET28 construct (pET28b in the plasmid section, pET28a in the purification section); also called N-His6-KDM4A-DTD; source: E. coli BL21 (DE3), purified (HisTrap, thrombin cleavage, gel filtration); not shown: His6, N-terminal, cleaved
T1 sequence (looked up): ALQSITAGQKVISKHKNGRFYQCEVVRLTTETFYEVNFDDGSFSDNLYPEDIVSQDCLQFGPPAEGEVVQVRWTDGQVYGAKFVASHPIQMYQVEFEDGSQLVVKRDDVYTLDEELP

KDM4A-DTD N931D = biological target: T2, KDM4A-DTD N931D (human, UniProt O75164 895-1011, N931D); test: fluorescence polarisation; fluorescein-labelled histone peptide 3 nM, KDM4 DTD titrated 0.1-100 μM; 30 mM HEPES, 150 mM NaCl pH 7.4, 0.01% Triton X-100
T2 construct: Human KDM4A double tudor domain, residues 895-1011 of UniProt O75164 (isoform 1); source: E. coli BL21 (DE3), purified (Ni-NTA)
T2 sequence (looked up): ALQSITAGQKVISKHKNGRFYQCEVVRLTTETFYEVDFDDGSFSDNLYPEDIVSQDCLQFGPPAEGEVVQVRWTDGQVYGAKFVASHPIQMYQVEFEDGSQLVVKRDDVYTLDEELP

KDM4B-DTD N960A = biological target: T3, KDM4B-DTD N960A (human, UniProt O94953 917-1031, N960A); test: as above
T3 construct: Human KDM4B double tudor domain, residues 917-1031 of UniProt O94953 (isoform 1); also called N960A variant; source: E. coli BL21 (DE3), purified (Ni-NTA)
T3 sequence (looked up): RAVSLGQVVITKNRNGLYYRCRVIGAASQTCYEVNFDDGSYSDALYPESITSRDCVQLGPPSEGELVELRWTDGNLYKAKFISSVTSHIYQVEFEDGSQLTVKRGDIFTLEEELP

KDM4B-DTD S965D = biological target: T4, KDM4B-DTD S965D (human, UniProt O94953 917-1031, S965D); test: as above
T4 construct: Human KDM4B double tudor domain, residues 917-1031 of UniProt O94953 (isoform 1); also called KDM4B-S965D; source: E. coli BL21 (DE3), purified (Ni-NTA)
T4 sequence (looked up): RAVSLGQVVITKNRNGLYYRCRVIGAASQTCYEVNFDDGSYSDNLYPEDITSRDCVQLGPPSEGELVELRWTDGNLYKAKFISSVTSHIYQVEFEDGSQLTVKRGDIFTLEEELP

[2] = biological target: T5, KDM4C double tudor domain (KDM4C-DTD), HaloTag-tagged, wild type (human, UniProt Q9H3R0 877-991); test: as above
T5 construct: Human KDM4C double tudor domain, residues 877-991 of UniProt Q9H3R0 (isoform 1); pFN29 construct; also called HT-KDM4 DTD; source: E. coli BL21 (DE3), purified (Ni-NTA); not shown: HaloTag, N-terminal, kept
T5 sequence (looked up): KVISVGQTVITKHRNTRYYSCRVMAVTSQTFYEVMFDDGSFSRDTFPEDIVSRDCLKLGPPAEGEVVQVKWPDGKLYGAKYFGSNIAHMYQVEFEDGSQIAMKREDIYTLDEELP

binding result [1]: binds
B1: H3 (19-28) K23me3 peptide for co-crystallization (peptide, UniProt P68431 20-29, looked up)
peptide: QLATK(Me3)AARKS
notes: density seen for Q19-K27; also called H3K23me3 peptide; H3 (19-27) K23me3 peptide; source: synthetic peptide, bought: Peptide 2.0

Kd (KDM4A-DTD N931D): 12.2 µM
B2: H3K14me3 peptide, fluorescein-labelled (peptide)
chain: ARKSTGGK(Me3)APRKQLATK
modifications: also: fluorescein label, end not given here

Kd (KDM4B-DTD N960A): 303 µM | Kd (KDM4B-DTD S965D): ~200 µM | Kd [2]: 6.8 µM
B3: H3K4me3 peptide, fluorescein-labelled (peptide)
chain: ARTK(Me3)QTARKSTGGK
modifications: also: fluorescein label, end not given here

From article PMC5114558, “Reader domain specificity and lysine demethylase-4 family function” (Nature Communications, 2016)
